Measurements published in the supplement of paper PMC9170038.

Test system: MS2 coat protein
Assay: apparent KD of MS2 coat protein; higher = weaker reporter binding
Details: Eterna round: R107
Method: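 RNA-MaP round R107: designed RNA switches with theophylline, tryptophan, arginine or FMN aptamers are transcribed on-chip within common flanks. They are titrated with SNAP-549-labelled MS2 coat protein in RNA-MaP buffer (100 mM Tris pH 7.5, 80 mM KCl, 4 mM MgCl2), without ligand or with the indicated ligand. Median apparent KD per design.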

[1] = input ligand: theophylline 20 uM
[2] = input ligand: tryptophan 2.4 mM
[3] = input ligand: theophylline 2 mM

Sequence	apparent KD of MS2 coat protein (input ligand: arginine 13.2 mM) [nM]	apparent KD of MS2 coat protein [1] [nM]	apparent KD of MS2 coat protein [2] [nM]	apparent KD of MS2 coat protein (input ligand: none) [nM]	apparent KD of MS2 coat protein [3] [nM]
AAGCUGGGUGUAAAAUAAAUAAUCACUGAUACCAGACUAUGAGAUGUCCCUUGGCAGCAGAAACAUGAGGAUCACCCAUGUAAUA [JR_Nu_ExcTheophyA_Sub027]	21.4	25.5	27.1		
AAGGGAGAAUCAGAUACCAGAGUAAGAUGGCAUGAUAAUUACAUGAGGAUCACCCAUGUACUCCCUUGGCAGCUGACAAUAUAUU [Exclusion Theophylline B GF 18]	12.5	13.2	10.3		
AAGGUGAUCCCAGAUACCAGCUUAACAUGAGGAUCACCCAUGUAUGGGACGAAAGUCCCGGGCCCUUGGCAGCUGGGUUGCCAAG [SSTheo B #16]	43.6	427	170	224	64.9
AAGGUGAUCCGUGAUACCAGCUCAACAUGAGGAUCACCCAUGUAACGGACGAAAGUCCGGAGCCCUUGGCAGCACGGUAAUAAUA [(M)'-(Theo1)-(Ms2)-(Theo2)-(M'')_Design2b]	10.4	15.1	11.6		
AAGGUGAUCCGUGAUACCAGCUCAACAUGAGGAUCACCCAUGUACGGGACGAAAGUCCCGGGCCCUUGGCAGCACGGUUGCCAAG [SSTheo B #20]	53.2	239	109	89.8	93.7
AAGUCAGGAGGCGAUACCAGUUACGACAUGGCCAGUUACAUGAGGAUCACCCAUGUGCGGAACCCUUGGCAGCGCUUACAUCGCU [theeternabot_exclusion_MS2_Theo_B_1]	22.5	47	24.4		
AAUAAUAAGAAUAACGUACCAGGUGAUCAACGAGGACCGGUACGGCCGCCACUCGAAACAUGAGGAUCACCCAUGUAAUAACAAU [|T'-M'-Trp-Ms2|_Design 2_OL]	39.7	107			124
AAUAUAUAGACGGCCGCCACUGGAACCAAUACAUGAGGAUCACCCAUGUGAAAAGGAUAGGUUCACAGGACCGGGUCUUCAUGUA [SS Tryp B Tesla 1.3]	40.5	33.1			61
AAUCAUGAAAACAUGACAUGAGGAUCACUCCGAGGACCGGUACGGCCGCCACUCGCGAGGAGGCGGACAUGAGGAUCACCCAUGU [#02 Tryptophan A Same State]	49.2	265			421
AAUCAUGGAAACAUGACAUGAGGAUUACUCCGAGGACCGGUACGGCCGCCACUCGCGAGGAGGCGGACAUGAGGAUCACCCAUGU [#03 Tryptophan A Same State]	55.8	208			189
AAUUCCUCACAUGAGGAUCACCCAUGUGAAGGAGCGCCGAAUAAGGCAGGUAGGUCGCACAUGGAAACCGCUACGAAAGUAGUAA [XArg-A 2 NuV2]	18.7	25.3	19.2	19.9	22.1
AAUUGAAACAGAGGUAUAUACGGACAUUACCGAGGACCGGUACGGCCGCCACUCGACCUAAAACAUGAGGAUCACCCAUGUAGCA [theeternabot_exclusion_MS2_Trp_A_20]	12.6	14.2			13.8
AAUUUGUCGGGUGAUACCAGCCUCGGCGCGUCUCGCGCUGAACAUGAGGAUCACCCAUGUGGCCCUUGGCAGCACAUGACAAAUC [Raracere]	367	557	677		
AAUUUUAACGGAAGGAGCGUCAAUUAAUACAAACAUGAGGAUCACCCAUGUCAAUACAUGAGACAGGUAGGUCGCCGUUAUUUGA [JR_AAArginiB_Sub024]	23.9	28	23.3	22.1	21.7
ACACAAUACAUGAGGAUCACCCAUGUAAAACGAGGACCGGUACGGCCGCCACUCGAAUACUGUAAUCCUCGGAAUAUUAAGUGAA [JR_ExcTryptA_Sub002]	28.7	57.1			61.6
ACACAUGAGGAUCACCCAUGUGCCCAUGAAGGAGCGUGGGAAACCACAGGUAGGUCGCAUGACAUGAGGAUCACCCAUGUUUAUU [Astarte]	29	44.9	41.9	41.9	39.7
ACAUCUUGUACGGCCGCCACUAACAGAUUCAGCGUCGGAGCCAACUACAUGAGGAUCACCCAUGUUAGGACCGGGUACUGUCCAC [theeternabot_exclusion_MS2_Trp_B_47]	15.8	20.7			21
ACAUGACAACAUGAGGAUCACCCAUGUCAUCGAGGACCGGUACGGCCGCCACUCGGUCAAUAUGAUACUUGUCAUGAACAUGAGG [Exclusion Tryptophan A 2]	19	25.7			21.3
ACAUGAGGACCGGAUACCAGCCACACAACAUGAGGAUCACCCAUGUCCCAUGUAUGAGGAGGCCCUUGGCAGCCGACAUACAUGA [Exclusion - Theophylline B #1]	48.2	157	78.1	77.3	398

Sequence	apparent KD of MS2 coat protein (input ligand: arginine 13.2 mM) [nM]	apparent KD of MS2 coat protein [1] [nM]	apparent KD of MS2 coat protein [2] [nM]	apparent KD of MS2 coat protein (input ligand: none) [nM]	apparent KD of MS2 coat protein [3] [nM]
ACAUGAGGAUCACCCAUGUAAUAGCGAGAAGGAGCGCGUAAGGACGCAGGUAGGUCGCUCGUGGUCCGGCCGCAAGGCCGGACCA [#1 Same State - Arginine A Attempt #10 (HarryS)]	11.1	18.6	13.2	9.24	12
ACAUGAGGAUCACCCAUGUACAUCACCCGACGAGGACCGGUACGGCCGCCACUCGGGUAUAUAUAUACAUCGGGUGAUUUUGCAU [#21 Tryptophan A Same State]	27.4	108	26.5	20.9	79.5
ACAUGAGGAUCACCCAUGUACAUGAGGGAAGGAGCGGUACAUGUGCCAGGUAGGUCGCCCAACAGCAUCAGCCAUGUACAACGGA [xxbmullin]	29	87.4	52.3	56.8	69.5
ACAUGAGGAUCACCCAUGUAUUGAGCCGAAGGAGCGGCAGGUAUGCCAGGUAGGUCGCGGUUAGAGUAGAUUGAUGUUCUUUUGU [Exclusion - Arginine A / B]	12.3	14.8	12.4	12.7	16.3
ACAUGAGGAUCACCCAUGUCACGGCACGAUACCAGCUGAUCCGGUGGCCCUUGGCAGCGUGACGUUUGGUCCCGCGGAUCACACG [semullin]	40	101	66.9		
ACAUGAGGAUCACCCAUGUGAAGGCACGAUACCAGCUGAUCCCGUGGCCCUUGGCAGCGUCCGGUGUGGUCCGGCGGAUGGGACG [xwxmullin]	19.1	23.3	26.4	25	30.9
ACAUGAGGAUCACCCAUGUGCCGUCUUGAUACCAGACCCGAAGUAGUCCCUUGGCAGCAACUACGUGACGGUCGCGCAUGUGUAG [kaomullin]	16.3	30.3	17.7		
ACAUGAGGAUCACCCAUGUUAAACACAGAAGGAGCGUGAAGGAACACAGGUAGGUCGCUGUACUUAUUGAGUAUUCACUCGAUAC [JR_Nu_SSArginiA_Sub028]	14.9	16.5	13.3	12.5	12.8
ACCAGGGUCUGAAGGAGCGCGAUUACAUGAGGAUCACCCAUGUGAAAUGGUAGAUGAUACUCGCAGGUAGGUCGCAGUACUUGGA [Same State Arginine B GF 14]	53.3	164	215	107	234
ACCGCAGGUCCUGAUACCAGAGACAUGAGGAUCACCCAUGUCCGAUCGUCCUGCCUCAGGCUCCCUUGGCAGCAGGGCUUGUCCU [Exclusion Theophylline B GF8]	14.1	20.6	14.8		
ACCUGUACGAAAAGUGCAGGACAUGGUAAACGAGGACCGGUACGGCCGCCACUCGAAGAAAACAAGUGGAUCACCCUUGUCCAUG [TrypAS 4 #AlternativeMS2 #Zipper #StaticStem]	292	641	1350	622	2090
ACGACAUGAGGAUCACCCAUGUAAGGUGAUACCAGACGAAGUAAUGUCCCUUGGCAGCACAAGCAUAGUUGCGAUUAUUGUACGA [JR_SSTheophyA_Sub006]	124	574	442		
ACGAUACGACAUGAGGAUCACCCAUGUGAUACCAGCGUGGAAACACGCCCUUGGCAGCACAAAUACUCCAAUAACGUAUCGAAAA [MAT - Exclusion Theophlline A - Mod of Eli - D8]	139	211	260		
ACGCCCAGGUAGGCUUAAUGGGAUAUGGAAGGAGCGCUGAUGCAAGCAGGUAGGUCGCCAACGGACAUGAGGAUCACCCAUGUAC [Same State - Arginine A (Freestyle 3)]	15.3	22.3	19.5	20.9	23.8
ACGCUGAUUGAUUACAAUCAGCGAAAAGAUACCAGUGGGUAAUCCCACCCUUGGCAGCUUAAAUCUGAGGAUCACCCAGGUGGUA [TheoAS 19 #MS2Right #BothOrNeither #AlternativeMS2]	153	382	728	253	376
ACGGACAUGAGGAUCACCCAUGUGGCCGAAGGAGCGGGAAUUAACCCAGGUAGGUCGCGGAAAUUUUUUAAAUUAUUUUAAUUUU [Same State - Arginine A]	14.4	21.5	17.3	17.1	18.7
ACGGAUCGGAAACGAUCCGCGGCGAGGGUGCGAGGACCGGUACGGCCGCCACUCGGGUAACAUGAGGAUCACCCAUGUCCGAAGA [ETA NuPACK+Vienna+Vienna2 #10 Same Structure]	35.8	60.3	209	55	106
ACGUAAUGCAGAAGGAGCGUCUAUGUGUUACAUGAGGAUCACCCAUGUGUUAUGUUAUGUGGACAGGUAGGUCGCUGAAGUACGA [JR_SSArginiB_Sub005]	45	104	81	127	134
